Key:
[1] = target: melanocortin-1 receptor (mouse (B-16 melanoma cells); in some instances human (hMC1-R)) (UniProt Q01727); assay: [I125]-NDP-α-MSH competition, MC1-R membranes
[2] = target: human melanocortin-4 receptor (human) (UniProt P32245); assay: cell-based or functional assay
[3] = target: human melanocortin-4 receptor (human) (UniProt P32245); assay: [I125]-NDP-α-MSH competition, hMC4-R HEK-293 membranes

Sequence of melanocortin-1 receptor (mouse (B-16 melanoma cells); in some instances human (hMC1-R)) (Q01727 whole entry): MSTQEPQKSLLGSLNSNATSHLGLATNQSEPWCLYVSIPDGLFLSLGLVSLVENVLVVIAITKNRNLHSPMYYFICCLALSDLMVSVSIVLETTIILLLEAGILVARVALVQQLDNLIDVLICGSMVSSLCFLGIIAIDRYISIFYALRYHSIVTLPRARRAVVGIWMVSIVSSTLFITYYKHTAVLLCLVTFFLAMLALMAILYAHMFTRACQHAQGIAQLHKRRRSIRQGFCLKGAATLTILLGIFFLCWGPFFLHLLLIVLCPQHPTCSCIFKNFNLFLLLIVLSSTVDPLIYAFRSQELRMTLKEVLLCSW
Sequence of human melanocortin-4 receptor (human) (P32245 whole entry): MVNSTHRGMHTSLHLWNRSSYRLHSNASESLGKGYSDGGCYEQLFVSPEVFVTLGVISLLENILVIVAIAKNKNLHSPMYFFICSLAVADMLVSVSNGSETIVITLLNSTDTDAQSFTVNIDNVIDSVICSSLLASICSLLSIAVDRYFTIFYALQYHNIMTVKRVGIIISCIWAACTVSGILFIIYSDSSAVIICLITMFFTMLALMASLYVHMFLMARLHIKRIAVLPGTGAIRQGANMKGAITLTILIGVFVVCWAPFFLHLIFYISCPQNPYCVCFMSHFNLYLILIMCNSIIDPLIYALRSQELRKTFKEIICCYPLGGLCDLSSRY

Substance	Ki [1]	EC50, cAMP, 0.1 ng/mL Doxycycline [2]	EC50, cAMP, 10 ng/mL Doxycycline [2]	Intrinsic Activity, cAMP, 0.1 ng/mL Doxycycline [2]	Intrinsic Activity, cAMP, 10 ng/mL Doxycycline [2]	Ki [3]
Ac-Arg-cyclo(Glu-Dab-D-Phe(2,4-diCl)-Arg-Trp-Orn)-NH2 (peptide)	0.5 nM		0.245 nM	11%	100%	0.055 nM
Ac-Arg-cyclo(Glu-Dab-D-Phe(2-CF3)-Arg-Trp-Orn)-NH2 (peptide)		0.125 nM	0.06 nM	85%	96%	0.6 nM
Ac-Arg-cyclo(Glu-Dab-D-Phe(2-Cl)-Arg-Trp-Orn)-NH2 (peptide)	1 nM	0.34 nM	0.045 nM	91%	96%	
Ac-Arg-cyclo(Glu-Dab-D-Phe(2-NO2)-Arg-Trp-Orn)-NH2 (peptide)			0.2 nM	78%	93%	11 nM
Ac-Arg-cyclo(Glu-Dab-D-Phe(3,4,5-triF)-Arg-Trp-Orn)-NH2 (peptide)		0.7 nM	0.33 nM	37%	97%	0.667 nM
Ac-Arg-cyclo(Glu-Dab-D-Phe(3,4-diF)-Arg-Trp-Orn)-NH2 (peptide)		0.125 nM	0.12 nM	74%	90%	0.3 nM
Ac-Arg-cyclo(Glu-Dab-D-Phe(3,4-diOMe)-Arg-Trp-Orn)-NH2 (peptide)		75 nM	2 nM	23%	94%	
Ac-Arg-cyclo(Glu-Dab-D-Phe(3-CF3)-Arg-Trp-Orn)-NH2 (peptide)	9 nM	8 nM	0.4 nM	16%	93%	0.95 nM
Ac-Arg-cyclo(Glu-Dab-D-Phe(3-F)-Arg-Trp-Orn)-NH2 (peptide)	2 nM	0.45 nM	0.17 nM	77%	94%	2 nM
Ac-Arg-cyclo(Glu-Dab-D-Phe(3-Me)-Arg-Trp-Orn)-NH2 (peptide)		0.42 nM	0.22 nM	35%	97%	0.4 nM
Ac-Arg-cyclo(Glu-Dab-D-Phe(3-NO2)-Arg-Trp-Orn)-NH2 (peptide)		2 nM	0.55 nM	17%	95%	0.7 nM
Ac-Arg-cyclo(Glu-Dab-D-Phe(4-CN)-Arg-Trp-Orn)-NH2 (peptide)	5 nM	0.3 nM	0.135 nM	48%	100%	0.833 nM
Ac-Arg-cyclo(Glu-Dab-D-Phe(4-Cl)-Arg-Trp-Orn)-NH2 (peptide)	0.3 nM	0.07 nM	0.16 nM	28%	100%	0.08 nM
Ac-Arg-cyclo(Glu-Dab-D-Phe(4-NO2)-Arg-Trp-Orn)-NH2 (peptide)		0.7 nM	0.45 nM	15%	99%	0.45 nM
Ac-Arg-cyclo(Glu-Phe(3-C(═O)-NH2)-D-Phe(2-Cl)-D-Phe-Arg-Trp-Orn)-NH2 (peptide)	545 nM		4 nM	6%	93%	
Ac-Arg-cyclo(Glu-Ser(Bzl)-D-Phe(2-Cl)-Arg-Trp-Orn)-NH2 (peptide)		0.31 nM	0.373 nM	36%	100%	0.3 nM
Ac-D-Arg-cyclo(Orn-His-D-Phe(2-F)-Arg-Trp-Glu)-NH2 (peptide)		0.13 nM	0.13 nM	86%	90%	0.95 nM

Now from value to substance:

Ki [1]	EC50, cAMP, 0.1 ng/mL Doxycycline [2]	EC50, cAMP, 10 ng/mL Doxycycline [2]	Intrinsic Activity, cAMP, 0.1 ng/mL Doxycycline [2]	Intrinsic Activity, cAMP, 10 ng/mL Doxycycline [2]	Ki [3]	Substance
30 nM	5 nM	0.3 nM	41%	98%	11 nM	Ac-Arg-cyclo(Glu-Dab(Acetyl)-D-Phe(2-Cl)-Arg-Trp-Orn)-NH2 (peptide)
		0.5 nM	8%	97%	0.085 nM	Ac-Arg-cyclo(Glu-Dab-D-Phe(2,4-diMe)-Arg-Trp-Orn)-NH2 (peptide)
	34 nM	0.5 nM	64%	97%	45 nM	Ac-Arg-cyclo(Glu-Dab-D-Phe(2-CN)-Arg-Trp-Orn)-NH2 (peptide)
0.8 nM	0.09 nM	0.035 nM	91%	89%	0.7 nM	Ac-Arg-cyclo(Glu-Dab-D-Phe(2-F)-Arg-Trp-Orn)-NH2 (peptide)
	0.14 nM	0.085 nM	83%	97%	0.5 nM	Ac-Arg-cyclo(Glu-Dab-D-Phe(2-Me)-Arg-Trp-Orn)-NH2 (peptide)
0.2 nM		0.38 nM	5%	92%	0.055 nM	Ac-Arg-cyclo(Glu-Dab-D-Phe(3,4-diCl)-Arg-Trp-Orn)-NH2 (peptide)
	0.95 nM	0.12 nM	64%	95%	2 nM	Ac-Arg-cyclo(Glu-Dab-D-Phe(3,5-diF)-Arg-Trp-Orn)-NH2 (peptide)
43 nM	37 nM	2 nM	29%	100%	33 nM	Ac-Arg-cyclo(Glu-Dab-D-Phe(3-CN)-Arg-Trp-Orn)-NH2 (peptide)
1 nM	0.56 nM	0.095 nM	36%	99%		Ac-Arg-cyclo(Glu-Dab-D-Phe(3-Cl)-Arg-Trp-Orn)-NH2 (peptide)
	1 nM	0.065 nM	64%	100%		Ac-Arg-cyclo(Glu-Dab-D-Phe(3-OMe)-Arg-Trp-Orn)-NH2 (peptide)
			0.5%	53%	0.06 nM	Ac-Arg-cyclo(Glu-Dab-D-Phe(4-CF3)-Arg-Trp-Orn)-NH2 (peptide)
	0.165 nM	0.2 nM	16%	90%	0.145 nM	Ac-Arg-cyclo(Glu-Dab-D-Phe(4-Me)-Arg-Trp-Orn)-NH2 (peptide)
	29 nM	0.6 nM	35%	94%	48 nM	Ac-Arg-cyclo(Glu-Dab-D-Phe(4-NH2)-Arg-Trp-Orn)-NH2 (peptide)
		0.8 nM	14%	100%	0.5 nM	Ac-Arg-cyclo(Glu-Dab-D-Phe(4-Ph)-Arg-Trp-Orn)-NH2 (peptide)
			2%	9%	4 nM	Ac-Arg-cyclo(Glu-Dab-D-Phe(4-tBu)-Arg-Trp-Orn)-NH2 (peptide)
	48 nM	0.55 nM	71%	87%	75 nM	Ac-Arg-cyclo(Glu-Dab-D-Tyr-Arg-Trp-Orn)-NH2 (peptide)
	16 nM	0.47 nM	23%	84%	9 nM	Ac-Arg-cyclo(Glu-Dap-D-Phe(2-Cl)-Arg-Trp-Orn)-NH2 (peptide)
		0.95 nM	6%	89%	4 nM	Ac-Arg-cyclo(Glu-Dap-D-Phe(3-Cl)-Arg-Trp-Orn)-NH2 (peptide)
53 nM	1 nM	0.08 nM	57%	90%		Ac-Arg-cyclo(Glu-Hyp-D-Phe(2-F)-Arg-Trp-Orn)-NH2 (peptide)
	0.95 nM	0.14 nM	36%	93%	1 nM	Ac-Arg-cyclo(Glu-Orn-D-Phe(3-Cl)-Arg-Trp-Orn)-NH2 (peptide)

From patent US20100311648A1
